Experimental data from patent publication US11571459B2, “Methods for treating cancer using PS-targeting antibodies with immuno-oncology agents” (ONCXERNA THERAPEUTICS, INC., priority 2017, dated 2023).

Tests used:
tumors = experiment: Syngeneic and xenogeneic tumor models; assay type: in vivo, mice; details: wide range of studies
Procedure: The 3G4 antibody was purified to apparent homogeneity from the supernatant of the cultured hybridoma using a standard Protein A procedure.
In early studies in mice, it was calculated that molar ratios of β2GPI to antibody of between 0.12 and 0.25 were effective for anti-tumor activity, thus showing that high levels of β2GPI are not necessary for anti-tumor activity.

[1] = Further pharmacokinetic studies in over 120 patients with cancer or viral infections; assay type: in vivo, human
hepatitis C virus (HCV) = experiment: Phase Ib escalating repeat-dose study in chronic HCV; assay type: in vivo, human; details: for viral load: Phase Ib
Procedure: Bavituximab was first evaluated in Phase I, open-label, dose escalation studies and Phase Ib, open-label, escalating repeat-dose studies in patients chronically infected with hepatitis C virus (HCV). […] Doses of 0.1, 0.3, 1, 3 and 6 mg/kg were administered in Phase I (30 patients; successive cohorts of 6 patients), and doses of 0.3, 1, 3 and 6 mg/kg were administered in Phase Ib (24 patients; four cohorts of 6 patients).

[2] = system: locally advanced or metastatic breast cancer; experiment: Phase II bavituximab plus paclitaxel and carboplatin in breast cancer; details: with paclitaxel and carboplatin
Source text: This Phase II study utilized a Simon 2-stage design. […] The primary objective was to determine the overall response rate (ORR), defined as complete response (CR) plus partial response (PR), CR+PR. Secondary objectives included time to tumor progression, duration of response (DOR or DR), overall survival (OS) and safety.

[3] = system: advanced hepatocellular carcinoma (HCC); experiment: Phase II bavituximab and sorafenib in HCC; assay type: in vivo, human
Procedure: A Phase II, single institution study of bavituximab and sorafenib in advanced hepatocellular carcinoma (HCC) was conducted. […] Secondary endpoints included overall survival (OS), disease specific survival, 4 month progression free survival, safety and response rate. The study accrued 38 patients.

[4] = system: previously untreated stage IV pancreatic cancer; experiment: Phase II (PPHM 1002) gemcitabine with or without bavituximab; assay type: in vivo, human; details: with gemcitabine
Procedure: The primary objective was to compare the OS of patients among the treatment arms. Secondary objectives included comparing PFS, ORR, DR and safety.
Gemcitabine (1000 mg/m^2) was given on days 1, 8, and 15 of each 28-day cycle (4 weeks) until disease progression or unacceptable toxicities. A total of 70 patients were enrolled to the study. In general, the patient population had very extensive disease burden, which may have reduced the response in both arms.
The levels of pre-treatment functional β2GPI ranged from 82.5 to 343.2 μg/ml for all patients. For these 31 patients, the mean level of pre-treatment functional β2GPI (219.2 μg/ml) was consistent with the average reported in the literature.

PS = details: in the presence of serum; cited from earlier work
[5] = irrespective of the presence of serum; cited from earlier work
[6] = system: previously-treated Stage IIIb/IV non-squamous NSCLC; experiment: Phase III trial of bavituximab plus docetaxel in NSCLC; details: functional β2GPI ≥200 μg/mL
Source text: This global, double-blind Phase III trial was initiated in 2012. Selection criteria were for patients with Stage IIIb/IV non-squamous NSCLC who progressed on platinum-doublet chemotherapy (should have progressed on appropriate targeted therapy if known EGFR or ALK mutation), with ECOG PS 0-1 and prior immunotherapy allowed (ECOG is the performance status scale defined by the Eastern Cooperative Oncology Group). […] The primary endpoint was overall survival (OS) and secondary endpoints included objective response rate (Independent Central Review, ICR), progression-free survival (ICR), safety, PK, Quality of Life (LCSS) and exploratory biomarkers, including immune correlates.
OS was analyzed by VeriStrat subgroups using Kaplan-Meier statistical methods.
A single cutoff method was first used to assess the patient β2GPI data.
The initial analyses described above prompted further, extensive analyses of the data in 592 evaluable patients. These analyses used a two cutoff method (Klein & Moeschberger, 2003).
Archival tissue obtained at the time of diagnosis was requested, but not required, in the Phase III trial of Example X. Formalin-fixed paraffin-embedded (FFPE) slides were stained with antibodies for a panel of lymphoid (or tumor) cell markers, as described in Feng et al., 2015: CD3+, CD8+, FoxP3+, PD-L1+, CD163+ and CK+ (cytokeratin, an epithelial carcinoma marker) using a mutliplex (6-plex) quantitative immunohistochemistry (IHC) assay (OPAL®, PerkinElmer, Waltham, Mass., USA) and using DAPI. The PD-L1 antibody used was the rabbit anti-PD-L1 antibody termed E1L3N® XP® (Cell Signaling Technology, (CST), Danvers, Mass., Catalogue #13684; Mahoney et al., 2015). Baseline PD-L1 expression was retrospectively scored on tumor cells (TC, i.e., CK+) and PD-L1 expressing tumor cells were classified according to their percentage within the total number of tumor cells using established assays and classifications (Fehrenbacher et al., 2016), as follows: TC3≥50%; TC2≥5% and ≤50%; TC1≥1% and <5%; and TC0<1%. Cox regression models for PD-L1 IHC subgroup populations were used for correlation with OS.
Kaplan-Meier statistical methods and Cox proportional hazard models were utilized to evaluate and contrast the correlation of peripheral (and intratumoral) IFNγ levels with OS based on a data cut from the Phase III trial (Example X) dated Feb.

HCV (genotype 1) = experiment: Phase II study of bavituximab with ribavirin in chronic HCV (genotype 1); details: for patients with early virological response (EVR): Week 12
[7] = Phase I dose escalation study of bavituximab monotherapy in refractory advanced solid tumors: PK, safety; details: for AUCinf / Cmax / t1/2 / CL: Mean (CV %)
Procedure: Samples were collected from patients in the 0.1 and 0.3 mg/kg dose cohorts before the study, on days 0, 1, 2, 4, 7, 10, 14, and every 7 days from days 21 to 70. Samples were collected from patients in the 1 and 3 mg/kg dose cohorts before the study, on days 0, 1, 2, 4, 7, 14, 21, 22, 23, 25, and every 7 days from days 28 to 56.

Question: With bavituximab as the substance, how does the “in vivo localization and effects” value (tumors) read?
Answer: Its value is “localize to tumor vascular endothelium and to exert anti-tumor effects and anti-viral effects”.

Question: And the PK linearity ([1]; doses 0.1 to 6 mg/kg)?
Answer: Its PK linearity is “linear single-dose and multiple-dose PK characteristics”.

Question: What about the “time by which distribution phase is essentially complete” value ([1]; where observed) of the same substance?
Answer: Its value is at most 6 h.

Question: And the viral load (hepatitis C virus (HCV); 3 mg/kg, throughout treatment and follow-up)?
Answer: Its viral load is “consistent decreases in HCV”.

Question: What about the viral load (hepatitis C virus (HCV); doses of 0.3, 1 and 6 mg/kg) of the same substance?
Answer: The viral load was “small decreases in viral load”.

Question: And the “accumulation / time-dependent PK differences” value (hepatitis C virus (HCV); all dose levels, day 0 and day 10)?
Answer: Its value is “no evidence of accumulation of bavituximab or time-dependent PK differences”.

Question: What about the “median PFS” value [2] of the same substance?
Answer: The value was 6.9 months.

Question: And the “median duration of response (DOR)” value [2]?
Answer: The value was 3.7 months.

Question: What about the CR ([2]; 46 patients) of the same substance?
Answer: Its CR is 10.9%.

Question: What about the “Grade 3 anemia” value ([2]; 46 patients) of the same substance?
Answer: The value was 10.9%.

Question: And the “Grade 3 leukopenia” value ([2]; 46 patients)?
Answer: The value was 23.9%.

Question: And the “Grade 3 neutropenia” value ([2]; 46 patients)?
Answer: The value was 19.6%.

Question: And the “Grade 4 neutropenia” value ([2]; 46 patients)?
Answer: Its value is 26.1%.

Question: What about the PR ([2]; 46 patients) of the same substance?
Answer: Its PR is 63.0%.

Question: What about the “objective response per RECIST” value ([2]; 46 patients) of the same substance?
Answer: Its value is 73.9%.

Question: And the “median OS” value ([2]; at study closure)?
Answer: Its value is 23.2 months.

Question: And the “patients with increased infiltration of activated tumor-fighting T-cells (CD8) into the tumor microenvironment” value ([3]; after one cycle)?
Answer: The value was “Three of the six patients”.

Question: And the “anorexia, all grade” value ([3]; with sorafenib)?
Answer: The value was 24%.

Question: What about the “diarrhea, all grade” value ([3]; with sorafenib) of the same substance?
Answer: The value was 32%.

Question: What about the “fatigue, all grade” value ([3]; with sorafenib) of the same substance?
Answer: The value was 26%.

Question: And the “four month PFS” value ([3]; with sorafenib)?
Answer: The value was 61%.

Question: What about the “median OS (mOS)” value ([3]; with sorafenib) of the same substance?
Answer: The value was 6.2 months.

Question: And the partial response ([3]; with sorafenib)?
Answer: Its partial response is “Two patients achieved partial response”.

Question: And the tolerability ([3]; with sorafenib)?
Answer: Its tolerability is “well tolerated”.

Question: And the “grade 4 or 5 adverse events” value ([3]; with sorafenib, 38 patients)?
Answer: The value was “no grade 4 or 5 adverse events recorded”.

Question: And the mOS ([4]; functional β2GPI less than 200 μg/mL)?
Answer: The mOS was 5.3 months.

Question: And the mOS ([4]; functional β2GPI ≥200 μg/mL)?
Answer: The mOS was 7.4 months.

Question: What about the “binding to anionic phospholipids (PS, PI, PA, PG, CL)” value (PS) of the same substance?
Answer: The value was “bind strongly to anionic phospholipids”.

Question: And the “binding to neutral phospholipids PC, SM or PE” value [5]?
Answer: Its value is “no detectable binding”.

Question: And the mOS ([6]; with subsequent IO)?
Answer: Its mOS is “has yet to be reached”.

Question: What about the mOS ([6]; without subsequent IO) of the same substance?
Answer: Its mOS is 10.5 months.

Question: What about the “patients with early virological response (EVR)” value (HCV (genotype 1); 0.3 mg/kg weekly with ribavirin) of the same substance?
Answer: The value was 18%.

Question: And the “patients with early virological response (EVR)” value (HCV (genotype 1); 3 mg/kg weekly with ribavirin)?
Answer: Its value is 9%.

Question: And the “safety profile / patients reporting AEs” value (HCV (genotype 1); all with ribavirin)?
Answer: Its value is “more favorable safety profile”.

Question: And the viral reduction (HCV (genotype 1); plus ribavirin, 12 weeks)?
Answer: The viral reduction was “gradual viral reduction over 12 weeks was seen in some patients”.

Question: And the PK linearity ([7]; 0.1 to 3 mg/kg)?
Answer: Its PK linearity is “linear single-dose (day 0) and multiple-dose (days 21 or 42) PK characteristics”.

Question: And the maximum tolerated dose ([7]; 0.1 to 3 mg/kg weekly)?
Answer: The maximum tolerated dose was “No maximum tolerated dose was reached”.

Question: And the AUCinf ([7]; Day 0, 0.1 mg/kg, N=8)?
Answer: Its AUCinf is 113 (50.1) d μg/mL.

Question: And the Cmax ([7]; Day 0, 0.1 mg/kg, N=8)?
Answer: Its Cmax is 2.11 (27.3) μg/mL.

Question: And the t1/2 ([7]; Day 0, 0.1 mg/kg, N=8)?
Answer: The t1/2 was 43.9 (48.5) h.

Question: What about the AUCinf ([7]; Day 0, 0.3 mg/kg, N=6) of the same substance?
Answer: Its AUCinf is 241 (39.8) d μg/mL.

Question: And the Cmax ([7]; Day 0, 0.3 mg/kg, N=6)?
Answer: The Cmax was 5.13 (42.4) μg/mL.

Question: What about the t1/2 ([7]; Day 0, 0.3 mg/kg, N=6) of the same substance?
Answer: Its t1/2 is 39.8 (34.1) h.

Question: And the AUCinf ([7]; Day 0, 1.0 mg/kg, N=6)?
Answer: Its AUCinf is 966 (30.0) d μg/mL.

Question: And the Cmax ([7]; Day 0, 1.0 mg/kg, N=6)?
Answer: Its Cmax is 16.6 (30.9) μg/mL.

Question: And the t1/2 ([7]; Day 0, 1.0 mg/kg, N=6)?
Answer: Its t1/2 is 40.3 (20.2) h.

Question: What about the AUCinf ([7]; Day 0, 3.0 mg/kg, N=6) of the same substance?
Answer: The AUCinf was 3,017 (50.3) d μg/mL.

Question: What about the Cmax ([7]; Day 0, 3.0 mg/kg, N=6) of the same substance?
Answer: Its Cmax is 56.4 µg/mL.

Question: And the t1/2 ([7]; Day 0, 3.0 mg/kg, N=6)?
Answer: Its t1/2 is 37.2 (34.5) h.

Question: And the AUCinf ([7]; Day 21, 1.0 mg/kg weekly, N=6)?
Answer: Its AUCinf is 1,053 (38.0) d μg/mL.

Question: What about the CL ([7]; Day 21, 1.0 mg/kg weekly, N=6) of the same substance?
Answer: The CL was 1.12 (52.1) mL/kg/d.

Question: What about the Cmax ([7]; Day 21, 1.0 mg/kg weekly, N=6) of the same substance?
Answer: The Cmax was 18.7 (31.8) μg/mL.

Question: What about the t1/2 ([7]; Day 21, 1.0 mg/kg weekly, N=6) of the same substance?
Answer: Its t1/2 is 46.8 (38.4) h.

Question: What about the AUCinf ([7]; Day 21, 3.0 mg/kg weekly, N=4) of the same substance?
Answer: The AUCinf was 2,672 (63.4) d μg/mL.

Question: And the CL ([7]; Day 21, 3.0 mg/kg weekly, N=4)?
Answer: Its CL is 1.51 (61.4) mL/kg/d.

Question: And the Cmax ([7]; Day 21, 3.0 mg/kg weekly, N=4)?
Answer: The Cmax was 59.6 (27.6) μg/mL.

Question: What about the t1/2 ([7]; Day 21, 3.0 mg/kg weekly, N=4) of the same substance?
Answer: Its t1/2 is 46.0 (44.4) h.

Question: And the “time concentration remained above 2 μg/mL” value ([7]; dose of 1 mg/kg)?
Answer: The value was 6 days.

Question: And the “time concentration remained above 2 μg/mL” value ([7]; dose of 3 mg/kg)?
Answer: Its value is 7 days.
